Measured values taken from patent US20230212549A1 (3B PHARMACEUTICALS, published 2023).
Numbered stars: 1 amine (or outer) side, 2 acyl side, 3 side chain; on linkers, the order of the positions; unused ones are H or OH. Bridge positions count the residues as written; N and C are the ends. Square brackets hold non-standard residues; d marks the D form. Primed or numbered codes have the meaning given here. * marks the point of attachment. Ttds″ = 1,13-diamino-4,7,10-trioxatridecan-succinamic acid spacer, O=C(CCC(=O)[*:2])NCCCOCCOCCOCCCN[*:1]; TBMB(SCH2CH2NH-DOTA) = O=C(O)CN1CCN(CC(=O)O)CCN(CC(=O)NCCSCc2cc(C[*:1])cc(C[*:2])c2)CCN(CC(=O)O)CC1; Ttds = 1,13-diamino-4,7,10-trioxatridecan-succinamic acid, O=C(CCC(=O)[*:2])NCCCOCCOCCOCCCN[*:1]; Ttds(4) = spacer between chelator and peptide, O=C(CCC(=O)[*:2])NCCCOCCOCCOCCCN[*:1]; N4Ac = 6-Carboxy-1,4,8,11-tetraazaundecane, an N4-chelator, NCCNCC(CNCCN)C(=O)*; DOTA = O=C(O)CN1CCN(CC(=O)O)CCN(CC(=O)*)CCN(CC(=O)O)CC1; nBu‑CAyl = n-butylaminocarbonyl, CCCCNC(=O)*; mXylylene = c1cc(C[*:1])cc(C[*:2])c1; Pentanesulfonyl = CCCCCS(=O)(=O)*; NMeF = CN[C@@H](Cc1ccccc1)C(=O)O; 4Amb = NCc1ccc(C(=O)O)cc1; Nle = CCCC[C@H](N)C(=O)O; Hexanoyl = CCCCCC(=O)*; Sar = CNCC(=O)O

T1: recombinant human PREP (R&D systems, #4308-SE) (human, UniProt P48147 1-710)
T1 sequence: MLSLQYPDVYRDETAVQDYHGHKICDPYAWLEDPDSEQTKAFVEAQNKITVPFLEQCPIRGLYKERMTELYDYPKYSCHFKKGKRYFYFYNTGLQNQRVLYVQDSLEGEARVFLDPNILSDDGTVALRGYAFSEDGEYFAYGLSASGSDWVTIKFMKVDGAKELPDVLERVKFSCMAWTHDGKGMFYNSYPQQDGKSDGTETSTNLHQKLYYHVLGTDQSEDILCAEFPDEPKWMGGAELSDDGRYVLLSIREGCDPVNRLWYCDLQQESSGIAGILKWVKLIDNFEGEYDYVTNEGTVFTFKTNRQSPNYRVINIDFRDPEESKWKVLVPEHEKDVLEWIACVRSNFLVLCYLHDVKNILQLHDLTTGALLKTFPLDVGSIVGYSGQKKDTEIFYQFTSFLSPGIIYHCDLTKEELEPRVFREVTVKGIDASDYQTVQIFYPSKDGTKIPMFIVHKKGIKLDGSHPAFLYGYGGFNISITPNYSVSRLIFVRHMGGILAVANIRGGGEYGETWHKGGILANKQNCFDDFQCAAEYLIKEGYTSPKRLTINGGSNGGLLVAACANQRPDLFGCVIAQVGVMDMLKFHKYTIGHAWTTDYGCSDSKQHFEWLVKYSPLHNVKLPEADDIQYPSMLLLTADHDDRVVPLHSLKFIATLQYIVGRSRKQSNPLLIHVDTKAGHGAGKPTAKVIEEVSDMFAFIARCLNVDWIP


Tests used:
[1] = biological target: Recombinant human DPP4 (R&D systems, #9168-SE) (human, UniProt P27487 29-766); experiment: cell-based or functional assay
Chain of Recombinant human DPP4 (R&D systems, #9168-SE) (P27487 29-766 limits assumed): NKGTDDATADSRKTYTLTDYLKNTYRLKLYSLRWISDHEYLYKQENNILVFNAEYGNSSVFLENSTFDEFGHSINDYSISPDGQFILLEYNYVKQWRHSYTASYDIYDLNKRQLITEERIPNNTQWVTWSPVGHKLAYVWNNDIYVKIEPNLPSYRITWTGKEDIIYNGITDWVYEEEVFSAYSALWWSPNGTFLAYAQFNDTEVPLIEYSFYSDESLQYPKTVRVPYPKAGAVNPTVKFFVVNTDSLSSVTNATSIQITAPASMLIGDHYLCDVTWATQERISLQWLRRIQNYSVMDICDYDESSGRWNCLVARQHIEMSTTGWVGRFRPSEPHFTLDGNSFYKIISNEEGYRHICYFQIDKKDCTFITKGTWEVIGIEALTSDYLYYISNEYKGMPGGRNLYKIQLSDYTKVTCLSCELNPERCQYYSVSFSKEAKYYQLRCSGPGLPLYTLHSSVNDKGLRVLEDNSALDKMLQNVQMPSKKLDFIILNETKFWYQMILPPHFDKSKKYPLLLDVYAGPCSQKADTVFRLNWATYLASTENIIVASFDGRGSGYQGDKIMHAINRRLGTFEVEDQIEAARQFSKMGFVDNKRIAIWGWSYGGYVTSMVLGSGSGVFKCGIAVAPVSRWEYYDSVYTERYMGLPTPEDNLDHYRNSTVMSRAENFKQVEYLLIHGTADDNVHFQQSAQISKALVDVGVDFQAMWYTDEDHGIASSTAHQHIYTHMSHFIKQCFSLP

[2] = biological target: T1, recombinant human PREP (R&D systems, …); experiment: cell-based or functional assay
[3] = biological target: T2, Recombinant human FAP (R&D systems, #3715-SE) (human, UniProt Q12884 26-760); experiment: SPR (Biacore T200), FAP captured on anti-FAP antibody, single cycle kinetics
T2 construct: bought; in SPR captured on immobilized anti-FAP antibody MAB3715; also called rhFAP; human recombinant FAP

[4] = biological target: T3, human fibroblast activation protein (FAP) on WI-38 fibroblasts (human, UniProt Q12884 1-760); experiment: competitive FACS, WI-38 cells, Cy5-labeled peptide as competitor
T3 construct: FAP-expressing human WI-38 fibroblasts (ECACC)

[5] = biological target: T2, Recombinant human FAP (R&D systems, …); experiment: cell-based or functional assay

Binder | pIC50 (DPP4) [1] | pIC50 (PREP) [2] | pKD Category [3] | pIC50 Category (FACS) [4] | pIC50 Category (Activity) [5]
{DOTA}-[Ttds][Nle]CPPTEFCD-NH2 (linker 3-9 via mXylylene; SMILES CCCC[C@H](NC(=O)CCC(=O)NCCCOCCOCCOCCCNC(=O)CN1CCN(CC(=O)O)CCN(CC(=O)O)CCN(CC(=O)O)CC1)C(=O)N[C@H]1CSCc2cccc(c2)CSC[C@@H](C(=O)N[C@@H](CC(=O)O)C(N)=O)NC(=O)[C@H](Cc2ccccc2)NC(=O)[C@H](CCC(=O)O)NC(=O)[C@H]([C@@H](C)O)NC(=O)[C@@H]2CCCN2C(=O)[C@@H]2CCCN2C1=O, also called 3BP-3320) [DOTA-Ttds-Nle-[Cys(3MeBn)-Pro-Pro-Thr-Glu-Phe-Cys]-Asp-NH2] | < 6 pIC50 | < 6 pIC50 | > 8 pKD |  | 
Pentanesulfonyl-CPPTQFCD-NH2 (linker 1-7 via tMeBn(InDOTA-PP); also: In complex of DOTA (InDOTA), also called 3BP-3717) [Pentyl-SO2-[Cys(tMeBn(InDOTA-PP))-Pro-Pro-Thr-Gln-Phe-Cys]-Asp-NH2] |  |  | > 8 pKD | > 8 pIC50 | > 8 pIC50
Hexanoyl-CPPTQFC-NH2 (linker 1-7 via mXylylene) [Hex-[Cys(3MeBn)-Pro-Pro-Thr-Gln-Phe-Cys]-NH2] | < 6 pIC50 | < 6 pIC50 |  |  | 
{DOTA}-[Ttds][Nle]CPPTQFCD[Ttds]K(DOTA)-NH2 (linker 3-9 via mXylylene; SMILES CCCC[C@H](NC(=O)CCC(=O)NCCCOCCOCCOCCCNC(=O)CN1CCN(CC(=O)O)CCN(CC(=O)O)CCN(CC(=O)O)CC1)C(=O)N[C@H]1CSCc2cccc(c2)CSC[C@@H](C(=O)N[C@@H](CC(=O)O)C(=O)NCCCOCCOCCOCCCNC(=O)CCC(=O)N[C@@H](CCCCNC(=O)CN2CCN(CC(=O)O)CCN(CC(=O)O)CCN(CC(=O)O)CC2)C(N)=O)NC(=O)[C@H](Cc2ccccc2)NC(=O)[C@H](CCC(N)=O)NC(=O)[C@H]([C@@H](C)O)NC(=O)[C@@H]2CCCN2C(=O)[C@@H]2CCCN2C1=O, also called 3BP-4393) [DOTA-Ttds-Nle-[Cys(3MeBn)-Pro-Pro-Thr-Gln-Phe-Cys]-Asp-Ttds-Lys(DOTA)-NH2] |  |  |  | > 8 pIC50 | > 8 pIC50
Hexanoyl-CPPTEFCDH[NMeF]R[Ttds″]K(DOTA)-NH2 (linker 1-7 via mXylylene; SMILES CCCCCC(=O)N[C@H]1CSCc2cccc(c2)CSC[C@@H](C(=O)N[C@@H](CC(=O)O)C(=O)N[C@@H](Cc2c[nH]cn2)C(=O)N(C)[C@@H](Cc2ccccc2)C(=O)N[C@@H](CCCNC(=N)N)C(=O)NCCCOCCOCCOCCCNC(=O)CCC(=O)N[C@@H](CCCCNC(=O)CN2CCN(CC(=O)O)CCN(CC(=O)O)CCN(CC(=O)O)CC2)C(N)=O)NC(=O)[C@H](Cc2ccccc2)NC(=O)[C@H](CCC(=O)O)NC(=O)[C@H]([C@@H](C)O)NC(=O)[C@@H]2CCCN2C(=O)[C@@H]2CCCN2C1=O, also called 3BP-3275) [Hex-[Cys(3MeBn)-Pro-Pro-Thr-Glu-Phe-Cys]-Asp-His-Nmf-Arg-Ttds-Lys(DOTA)-NH2] | < 6 pIC50 | < 6 pIC50 | > 8 pKD |  | 
Hexanoyl-CPPTEFCDHFRD[Ttds″]K(DOTA)-NH2 (linker 1-7 via mXylylene; SMILES CCCCCC(=O)N[C@H]1CSCc2cccc(c2)CSC[C@@H](C(=O)N[C@@H](CC(=O)O)C(=O)N[C@@H](Cc2c[nH]cn2)C(=O)N[C@@H](Cc2ccccc2)C(=O)N[C@@H](CCCNC(=N)N)C(=O)N[C@@H](CC(=O)O)C(=O)NCCCOCCOCCOCCCNC(=O)CCC(=O)N[C@@H](CCCCNC(=O)CN2CCN(CC(=O)O)CCN(CC(=O)O)CCN(CC(=O)O)CC2)C(N)=O)NC(=O)[C@H](Cc2ccccc2)NC(=O)[C@H](CCC(=O)O)NC(=O)[C@H]([C@@H](C)O)NC(=O)[C@@H]2CCCN2C(=O)[C@@H]2CCCN2C1=O) [Hex-[Cys(3MeBn)-Pro-Pro-Thr-Glu-Phe-Cys]-Asp-His-Phe-Arg-Asp-Ttds-Lys(DOTA)-NH2] | < 6 pIC50 | < 6 pIC50 | > 8 pKD |  | 
{DOTA}-[Ttds][Nle]CPPTEFCD[4Amb]R-NH2 (linker 3-9 via mXylylene; SMILES CCCC[C@H](NC(=O)CCC(=O)NCCCOCCOCCOCCCNC(=O)CN1CCN(CC(=O)O)CCN(CC(=O)O)CCN(CC(=O)O)CC1)C(=O)N[C@H]1CSCc2cccc(c2)CSC[C@@H](C(=O)N[C@@H](CC(=O)O)C(=O)NCc2ccc(C(=O)N[C@@H](CCCNC(=N)N)C(N)=O)cc2)NC(=O)[C@H](Cc2ccccc2)NC(=O)[C@H](CCC(=O)O)NC(=O)[C@H]([C@@H](C)O)NC(=O)[C@@H]2CCCN2C(=O)[C@@H]2CCCN2C1=O, also called 3BP-3321) [DOTA-Ttds-Nle-[Cys(3MeBn)-Pro-Pro-Thr-Glu-Phe-Cys]-Asp-Pamb-Arg-NH2] | < 6 pIC50 | < 6 pIC50 | > 8 pKD |  | 
{DOTA}-[Ttds(4)][Nle]CPPTEFCDHFRD-NH2 (linker 3-9 via mXylylene; SMILES CCCC[C@H](NC(=O)CCC(=O)NCCCOCCOCCOCCCNC(=O)CN1CCN(CC(=O)O)CCN(CC(=O)O)CCN(CC(=O)O)CC1)C(=O)N[C@H]1CSCc2cccc(c2)CSC[C@@H](C(=O)N[C@@H](CC(=O)O)C(=O)N[C@@H](Cc2c[nH]cn2)C(=O)N[C@@H](Cc2ccccc2)C(=O)N[C@@H](CCCNC(=N)N)C(=O)N[C@@H](CC(=O)O)C(N)=O)NC(=O)[C@H](Cc2ccccc2)NC(=O)[C@H](CCC(=O)O)NC(=O)[C@H]([C@@H](C)O)NC(=O)[C@@H]2CCCN2C(=O)[C@@H]2CCCN2C1=O) [DOTA-Ttds-Nle-[Cys(3MeBn)-Pro-Pro-Thr-Glu-Phe-Cys]-Asp-His-Phe-Arg-Asp-NH2] | < 6 pIC50 | < 6 pIC50 | > 8 pKD |  | 

Further lines, results first:

pIC50 (DPP4) [1] | pIC50 (PREP) [2] | pKD Category [3] | pIC50 Category (FACS) [4] | pIC50 Category (Activity) [5] | Binder
 |  | > 8 pKD | > 8 pIC50 | > 8 pIC50 | Hexanoyl-C[Sar]PTQFC-OH (linker 1-7 via tMeBn(InDOTA-AET); not fully specified (residue 1); printed as Hex--[C(tMeBn(InDOTA--AET))--Nmg-PTQFC]-OH; also: DOTA complexing indium, also called 3BP-3716) [Hex-[Cys(tMeBn(InDOTA-AET))-Nmg-Pro-Thr-Gln-Phe-Cys]-OH]
< 6 pIC50 | < 6 pIC50 |  |  |  | Hexanoyl-CPPTQFC-OH (bridge 1-7; not fully specified (bridges); printed as Hex-[Cys(tMeBn(DOTA-AET))-Pro-Pro-Thr-Gln-Phe-Cys]-OH; also: DOTA-AET attached to tMeBn scaffold) [Hex-[Cys(tMeBn(DOTA-AET))-Pro-Pro-Thr-Gln-Phe-Cys]-OH]
 |  | > 8 pKD | > 8 pIC50 | > 8 pIC50 | Hexanoyl-CPPTQFCG-OH (linker 1-7 via tMeBn(InDOTA-AET); also: In complex (InDOTA), also called 3BP-3714) [Hex-[Cys(tMeBn(InDOTA-AET))-Pro-Pro-Thr-Gln-Phe-Cys]-Gly-OH]
 |  |  | > 8 pIC50 | > 8 pIC50 | {nBu‑CAyl}-C[Sar]PTQFC-OH (linker 1-7 via TBMB(SCH2CH2NH-DOTA); SMILES CCCCNC(=O)N[C@H]1CSCc2cc(CSCCNC(=O)CN3CCN(CC(=O)O)CCN(CC(=O)O)CCN(CC(=O)O)CC3)cc(c2)CSC[C@@H](C(=O)O)NC(=O)[C@H](Cc2ccccc2)NC(=O)[C@H](CCC(N)=O)NC(=O)[C@H]([C@@H](C)O)NC(=O)[C@@H]2CCCN2C(=O)CN(C)C1=O, also called 3BP-4607) [nBu-CAyl-[Cys(tMeBn(DOTA-AET))-Nmg-Pro-Thr-Gln-Phe-Cys]-OH]
 |  |  | > 8 pIC50 | > 8 pIC50 | {nBu‑CAyl}-C[Sar]PTQFC-NH2 (linker 1-7 via TBMB(SCH2CH2NH-DOTA); SMILES CCCCNC(=O)N[C@H]1CSCc2cc(CSCCNC(=O)CN3CCN(CC(=O)O)CCN(CC(=O)O)CCN(CC(=O)O)CC3)cc(c2)CSC[C@@H](C(N)=O)NC(=O)[C@H](Cc2ccccc2)NC(=O)[C@H](CCC(N)=O)NC(=O)[C@H]([C@@H](C)O)NC(=O)[C@@H]2CCCN2C(=O)CN(C)C1=O, also called 3BP-4621) [nBu-CAyl-[Cys(tMeBn(DOTA-AET))-Nmg-Pro-Thr-Gln-Phe-Cys]-NH2]
 |  | > 8 pKD | > 8 pIC50 | > 8 pIC50 | N4Ac-[Ttds″][Nle]CPPTEFC-OH (linker 3-9 via mXylylene; SMILES CCCC[C@H](NC(=O)CCC(=O)NCCCOCCOCCOCCCNC(=O)C(CNCCN)CNCCN)C(=O)N[C@H]1CSCc2cccc(c2)CSC[C@@H](C(=O)O)NC(=O)[C@H](Cc2ccccc2)NC(=O)[C@H](CCC(=O)O)NC(=O)[C@H]([C@@H](C)O)NC(=O)[C@@H]2CCCN2C(=O)[C@@H]2CCCN2C1=O, also called 3BP-4161) [N4Ac-Ttds-Nle-[Cys-(3MeBn)-Pro-Pro-Thr-Glu-Phe-Cys]-OH]
